Test results reported in patent publication US20120244166A1.

Molecular target: gp120 (HIV-1 strain YU2) (UniProt P35961)
Assay: SPR

| Substance | Kd [nM] |
| --- | --- |
| b12 | 38.1 |

Molecular target: Du156.12
Assay: ELISA

| EC50 [µg/mL] | Substance |
| --- | --- |
| 0.066 | 5 (Heavy chain: P62K) |
| 0.071 | 7 (Heavy chain: Y74S) |
| 0.056 | 9 (Heavy chain: K52N) |
| 0.196 | 12 (Light chain: Y30S) |

Continued, substance first:

| Substance | EC50 [µg/mL] |
| --- | --- |
| 1 (Heavy chain: T33Y) | 0.048 |
| 3 (Heavy chain: A56G) | 0.101 |
| 4 (Heavy chain: V57T) | 0.164 |
| 6 (Heavy chain: V73T) | 0.097 |
| 8 (Heavy chain: I30T) | 0.063 |
| 10 (Heavy chain: R53N) | 0.063 |
| 11 (Heavy chain: R61Q) | 0.086 |
